# Data taken from PMC12102759 (2025).
# B1: MXI1 peptide 6-21 (Max-interacting protein 1), 16-mer library wild type / SIN3A PAH2 (SIN3A PAH domain, residues 295-383) (parent complex)
# chain 1: MINVQRLLEAAEFLER
# chain 2: SLQNNQPVEFNHAINYVNKIKNRFQGQPDIYKAFLEILHTYQKEQRNAKEAGGNYTPALTEQEVYAQVARLFKNQEDLLSEFGQFLPDA
# Variants of: B1
# Experiment: proteomic peptide phage display deep mutational scan (ProP-PD DMS): M13 P8 16-mer library selected against immobilised GST-tagged bait for four days (rounds), NGS of the eluted pools per day and pseudo-replica; bait immobilised on MaxiSorp plates (10 µg), library pre-cleared on GST, 2 h binding at 4 °C, five washes; one round per day, days 1-4; value from days 2 and 3
row,Variant,screen value
1,chain 1 E15H,"0.00272 average fractional NGS count over selection days 2 and 3 (reads of this peptide / all reads for the bait, averaged over …"
2,chain 1 E15G,"0.00623 average fractional NGS count over selection days 2 and 3 (reads of this peptide / all reads for the bait, averaged over …"
3,chain 1 E15D,"0.000913 average fractional NGS count over selection days 2 and 3 (reads of this peptide / all reads for the bait, averaged over …"
4,chain 1 E15T,"0.119 average fractional NGS count over selection days 2 and 3 (reads of this peptide / all reads for the bait, averaged over …"
5,chain 1 E15S,"0.0548 average fractional NGS count over selection days 2 and 3 (reads of this peptide / all reads for the bait, averaged over …"
6,chain 1 E15F,"0.000557 average fractional NGS count over selection days 2 and 3 (reads of this peptide / all reads for the bait, averaged over …"
7,chain 1 E15Y,"0.0114 average fractional NGS count over selection days 2 and 3 (reads of this peptide / all reads for the bait, averaged over …"
8,chain 1 R6Y,"0.00232 average fractional NGS count over selection days 2 and 3 (reads of this peptide / all reads for the bait, averaged over …"
9,chain 1 R6S,"0.00011 average fractional NGS count over selection days 2 and 3 (reads of this peptide / all reads for the bait, averaged over …"
10,chain 1 R6W,"0.0159 average fractional NGS count over selection days 2 and 3 (reads of this peptide / all reads for the bait, averaged over …"
11,chain 1 R6V,"0.000218 average fractional NGS count over selection days 2 and 3 (reads of this peptide / all reads for the bait, averaged over …"
12,chain 1 R6H,"0.00034 average fractional NGS count over selection days 2 and 3 (reads of this peptide / all reads for the bait, averaged over …"
13,chain 1 A10Y,"0.000126 average fractional NGS count over selection days 2 and 3 (reads of this peptide / all reads for the bait, averaged over …"
14,chain 1 A10G,"0.00122 average fractional NGS count over selection days 2 and 3 (reads of this peptide / all reads for the bait, averaged over …"
15,chain 1 A10V,"0.000572 average fractional NGS count over selection days 2 and 3 (reads of this peptide / all reads for the bait, averaged over …"
16,chain 1 A11Q,"0.000778 average fractional NGS count over selection days 2 and 3 (reads of this peptide / all reads for the bait, averaged over …"
17,chain 1 A11N,"0.000651 average fractional NGS count over selection days 2 and 3 (reads of this peptide / all reads for the bait, averaged over …"
18,chain 1 A11M,"0.00708 average fractional NGS count over selection days 2 and 3 (reads of this peptide / all reads for the bait, averaged over …"
19,chain 1 A11F,"0.000474 average fractional NGS count over selection days 2 and 3 (reads of this peptide / all reads for the bait, averaged over …"
20,chain 1 A11L,"0.000741 average fractional NGS count over selection days 2 and 3 (reads of this peptide / all reads for the bait, averaged over …"
21,chain 1 Q5M,"0.000803 average fractional NGS count over selection days 2 and 3 (reads of this peptide / all reads for the bait, averaged over …"
22,chain 1 Q5N,"0.000576 average fractional NGS count over selection days 2 and 3 (reads of this peptide / all reads for the bait, averaged over …"
23,chain 1 Q5T,"0.00207 average fractional NGS count over selection days 2 and 3 (reads of this peptide / all reads for the bait, averaged over …"
24,chain 1 I2A,"0.00266 average fractional NGS count over selection days 2 and 3 (reads of this peptide / all reads for the bait, averaged over …"
25,chain 1 I2Y,"0.00134 average fractional NGS count over selection days 2 and 3 (reads of this peptide / all reads for the bait, averaged over …"

row,Variant,screen value
1,chain 1 I2F,"0.000676 average fractional NGS count over selection days 2 and 3 (reads of this peptide / all reads for the bait, averaged over …"
2,chain 1 I2N,"0.00111 average fractional NGS count over selection days 2 and 3 (reads of this peptide / all reads for the bait, averaged over …"
3,chain 1 I2S,"0.000713 average fractional NGS count over selection days 2 and 3 (reads of this peptide / all reads for the bait, averaged over …"
4,chain 1 I2H,"0.000551 average fractional NGS count over selection days 2 and 3 (reads of this peptide / all reads for the bait, averaged over …"
5,chain 1 I2W,"0.00792 average fractional NGS count over selection days 2 and 3 (reads of this peptide / all reads for the bait, averaged over …"
6,chain 1 I2Q,"0.000479 average fractional NGS count over selection days 2 and 3 (reads of this peptide / all reads for the bait, averaged over …"
7,chain 1 E12R,"0.00176 average fractional NGS count over selection days 2 and 3 (reads of this peptide / all reads for the bait, averaged over …"
8,chain 1 E12W,"9.8e-05 average fractional NGS count over selection days 2 and 3 (reads of this peptide / all reads for the bait, averaged over …"
9,chain 1 E12N,"0.000144 average fractional NGS count over selection days 2 and 3 (reads of this peptide / all reads for the bait, averaged over …"
10,chain 1 E12Q,"0.00319 average fractional NGS count over selection days 2 and 3 (reads of this peptide / all reads for the bait, averaged over …"
11,chain 1 E12F,"0.0145 average fractional NGS count over selection days 2 and 3 (reads of this peptide / all reads for the bait, averaged over …"
12,chain 1 E12K,"0.00174 average fractional NGS count over selection days 2 and 3 (reads of this peptide / all reads for the bait, averaged over …"
13,chain 1 E12L,"0.0769 average fractional NGS count over selection days 2 and 3 (reads of this peptide / all reads for the bait, averaged over …"
14,chain 1 E12V,"0.000221 average fractional NGS count over selection days 2 and 3 (reads of this peptide / all reads for the bait, averaged over …"
15,chain 1 E12S,"0.000265 average fractional NGS count over selection days 2 and 3 (reads of this peptide / all reads for the bait, averaged over …"
16,chain 1 E12Y,"0.000478 average fractional NGS count over selection days 2 and 3 (reads of this peptide / all reads for the bait, averaged over …"
17,chain 1 E12G,"0.00105 average fractional NGS count over selection days 2 and 3 (reads of this peptide / all reads for the bait, averaged over …"
18,chain 1 L8M,"0.000134 average fractional NGS count over selection days 2 and 3 (reads of this peptide / all reads for the bait, averaged over …"
19,chain 1 L8I,"0.00287 average fractional NGS count over selection days 2 and 3 (reads of this peptide / all reads for the bait, averaged over …"
20,chain 1 L8S,"0.000473 average fractional NGS count over selection days 2 and 3 (reads of this peptide / all reads for the bait, averaged over …"
21,chain 1 L8Y,"0.000651 average fractional NGS count over selection days 2 and 3 (reads of this peptide / all reads for the bait, averaged over …"
22,chain 1 M1V,"0.000344 average fractional NGS count over selection days 2 and 3 (reads of this peptide / all reads for the bait, averaged over …"
23,chain 1 M1W,"0.00153 average fractional NGS count over selection days 2 and 3 (reads of this peptide / all reads for the bait, averaged over …"
24,chain 1 M1I,"0.000114 average fractional NGS count over selection days 2 and 3 (reads of this peptide / all reads for the bait, averaged over …"
25,chain 1 M1G,"0.000229 average fractional NGS count over selection days 2 and 3 (reads of this peptide / all reads for the bait, averaged over …"

row,Variant,screen value
1,chain 1 L7F,"0.000853 average fractional NGS count over selection days 2 and 3 (reads of this peptide / all reads for the bait, averaged over …"
2,chain 1 V4A,"0.000356 average fractional NGS count over selection days 2 and 3 (reads of this peptide / all reads for the bait, averaged over …"
3,chain 1 V4Y,"0.000247 average fractional NGS count over selection days 2 and 3 (reads of this peptide / all reads for the bait, averaged over …"
4,chain 1 V4W,"0.00027 average fractional NGS count over selection days 2 and 3 (reads of this peptide / all reads for the bait, averaged over …"
5,chain 1 V4H,"0.000116 average fractional NGS count over selection days 2 and 3 (reads of this peptide / all reads for the bait, averaged over …"
6,chain 1 V4L,"0.000307 average fractional NGS count over selection days 2 and 3 (reads of this peptide / all reads for the bait, averaged over …"
7,chain 1 L14D,"0.000292 average fractional NGS count over selection days 2 and 3 (reads of this peptide / all reads for the bait, averaged over …"
8,chain 1 L14H,"0.00159 average fractional NGS count over selection days 2 and 3 (reads of this peptide / all reads for the bait, averaged over …"
9,chain 1 L14V,"0.000293 average fractional NGS count over selection days 2 and 3 (reads of this peptide / all reads for the bait, averaged over …"
10,chain 1 L14N,"0.0048 average fractional NGS count over selection days 2 and 3 (reads of this peptide / all reads for the bait, averaged over …"
11,chain 1 L14G,"0.000436 average fractional NGS count over selection days 2 and 3 (reads of this peptide / all reads for the bait, averaged over …"
12,chain 1 L14R,"0.000773 average fractional NGS count over selection days 2 and 3 (reads of this peptide / all reads for the bait, averaged over …"
13,chain 1 L14P,"0.0014 average fractional NGS count over selection days 2 and 3 (reads of this peptide / all reads for the bait, averaged over …"
14,chain 1 L14E,"0.00161 average fractional NGS count over selection days 2 and 3 (reads of this peptide / all reads for the bait, averaged over …"
15,chain 1 L14S,"0.00955 average fractional NGS count over selection days 2 and 3 (reads of this peptide / all reads for the bait, averaged over …"
16,chain 1 L14K,"0.000523 average fractional NGS count over selection days 2 and 3 (reads of this peptide / all reads for the bait, averaged over …"
17,chain 1 E9D,"0.000993 average fractional NGS count over selection days 2 and 3 (reads of this peptide / all reads for the bait, averaged over …"
18,chain 1 E9I,"0.000125 average fractional NGS count over selection days 2 and 3 (reads of this peptide / all reads for the bait, averaged over …"
19,chain 1 E9M,"0.000348 average fractional NGS count over selection days 2 and 3 (reads of this peptide / all reads for the bait, averaged over …"
20,chain 1 E9Y,"0.000223 average fractional NGS count over selection days 2 and 3 (reads of this peptide / all reads for the bait, averaged over …"
21,chain 1 E9A,"0.000182 average fractional NGS count over selection days 2 and 3 (reads of this peptide / all reads for the bait, averaged over …"
22,chain 1 E9N,"0.0151 average fractional NGS count over selection days 2 and 3 (reads of this peptide / all reads for the bait, averaged over …"
23,chain 1 E9V,"0.000671 average fractional NGS count over selection days 2 and 3 (reads of this peptide / all reads for the bait, averaged over …"
24,chain 1 E9F,"0.000875 average fractional NGS count over selection days 2 and 3 (reads of this peptide / all reads for the bait, averaged over …"
25,chain 1 E9H,"0.000122 average fractional NGS count over selection days 2 and 3 (reads of this peptide / all reads for the bait, averaged over …"
